According to publication PMC11147780, “Vaccination induces broadly neutralizing antibody precursors to HIV gp41” (Nature Immunology, 2024):

B1: MPER-051 (antibody, V domains shown)
VH: QVQLVESGGGLVKPGGSLRLSCAASGFTFSDYYMSWIRQAPGKGLEWVSYISSSGSTIYYADSVKGRFTISRDNAKNSLYLQMNSLRAEDTAVYYCASLAHTYYDFWSGYYDRYYGMDVWGKGTTVTVSS
VL: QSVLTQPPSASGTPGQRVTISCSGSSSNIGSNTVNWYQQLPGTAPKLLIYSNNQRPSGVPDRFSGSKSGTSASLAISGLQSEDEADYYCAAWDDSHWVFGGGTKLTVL
B2: MPER18_d21_45.2_v55_04 (antibody, V domains shown)
VH: QVQLQESGPGLVKPSETLSLTCTVSGDSISSYYWNWIRQPPGKGLEWIGYFYYYGSTNYNPSLKSRVTISVDTSKNQFSLNLSSVTAADTAVYYCAREPPYYDFWSGLSMGVDTFDIWGQGTMVTVSS
VL: DVVMTQTPLSLPVSLGDQASISCRSSQSLVHSNGNTYLHWYLQKPGQSPKLLIYKVSNRFSGVPDRFSGSGSGTDFTLKISRVEAEDLGVYFCSQSTHVPRTFGGGTKLEIK
B3: MPER18_d21_45.2_v55_m15_C11 (antibody, V domains shown)
VH: QVQLQESGPGLVKPSETLSLTCTVSGGSISSYYWNWIRQPPGKGLEWIGYIFYSGTTNYNPSLKSRVTISVDTSKNQFSLKVRSVTAADTAVYYCAREPPYYDFWSGLSMGVGSFDIWGQGTMVTVSS
VL: DIVMTQSPLSLPVSLGDQASISCRSSQTIVYSSGYTYLEWYLQKPGQSPKLLIYKVSNRFSGVPDRFSGSGSGTDFTLKISRVEAEDLGVYFCFQGSHVPWTFGGGTKLEIK
B4: MPER18_d21_45.2_v55_m15_C05 (antibody, V domains shown)
VH: QVQLQESGPGLVKPSETLSLTCTVSGGSISSYCWSWIRQSPGKGLEWIGYIYYSGSINHNPSLKSRVTISADTSKNQFSLKLSSVTAADTAVYYCAREPPYYDFWSGLSMGVGAFDIWGQGTMVTVSS
VL: DIVMTQSPLSLPVSLGDQASISCRSSQSLVHNNGNTYLHWYLQQPGQSPKLLIYNFSNRFSGVPDRFSGSGSGTDFTLKISRVEAEDLGVYFCSQSTHVPRTFGGGTKLEIK
B5: MPER18_d21_45.2_v55_24 (antibody, V domains shown)
VH: QVQLQESGPGLVKPSETLSLTCTVSGGSISSYYWSWIRQPPGKGLEWIGYIYYSGSTNYNPSLKSRVTISVDTSKNQFSLKLSSVTAADTAVYYCAREPPYYDFWSGLSMGVGAFDIWGQGTLVTVSS
VL: DVLLTQSPLALPVSLGDQASISCRSSQSIVHSNGYTYLEWYLQKPGQSPKLLVYKVSNRFSGVPDRFSGSGSGTDFTLKISRVETEDLGVYYCFQGSHVPYTFGGGTKLEIK
B6: MPER18_d21_45.2_v55_12 (antibody, V domains shown)
VH: QVQLQESGPGLVTPSETLSLTCTVSGDSISSYYWNWIRQPPGKGLEWIEYMFYSGSTNYNPSLKSRVTISVDTSKNQFSLKLSSVTAADTAVYYCAREPPYYDFWSGLSMGVGAFDIWGQGTMVTVSS
VL: DIVMTQSPLSLPVSLGDQASISCRSSQSIVHSNGYTYLDWYLQRPGQSPKLLIYKVSNRFSGVPDRFSGSGSGTDFTLKISRVEAEDLGVYYCFQGSHVPYTFGGGTKLEIK
B7: MPER18_d21_45.2_v55_22 (antibody, V domains shown)
VH: QVQLQESGPGLVKPSETLSLTCTVSGGSISSYYWSWIRQPPGKGLEWIGYIYYSGSTNYNPSLKSRVTISVDTSKNQFSLKLSSVTAADTAVYYCAREPPYYDFWGGLFMGVGAFDIWGQGTMVTVSS
VL: DVLMTQTPLSLPVSLGDQASISCRSSQSIVHSNGNTFLEWYLQKPGQSPNLLIYRVSNRLSGVPDRFSGSGSGTDFTLKISRVEAEDLGVYYCFQGSHVPWTFGGGTKLEIK
B8: MPER18_d21_45.2_v55_17 (antibody, V domains shown)
VH: QVQLQESGPGLVKPSETLSLTCTVSGGSISSYFWSWIRQPPGKGLEWIGYIYNSGSTNYHPSLKSRVTISVDTSKNQFSLKLSSVTAADTAVYYCAREPPYYDFWSGLSMGVGAFDIWGQGTMVTVSS
VL: DVLMTQTPLSLPVSLGDQASISCRSSQSIVHSSGNTYLEWYLQKPGQSPKLLIYKVSNRFSGVPDRIGGSGSGTDFTLKISRVEAEDLGVYFCFQGSHVPWTFGGGTKLEIK
B9: MPER-052 (antibody, V domains shown)
VH: EVQLVESGGGLVQPGRSLRLSCTASGFTFGDYAMSWVRQAPGKGLEWVGFIRSKAYGGTTEYAASVKGRFTISRDDSKSIAYLQMNSLKTEDTAVYYCTRDLMGYYDFWSGYYRGHYGMDVWGKGTTVTVSS
VL: AIQMTQSPSSLSASVGDRVTITCRASQGIRNDLGWYQQKPGKAPKLLIYAASSLQSGVPSRFSGSGSGTDFTLTISSLQPEDFATYYCLQDYNYPLTFGGGTKVEIK
B10: MPER18_d21_45.1_v55_m3_F03 (antibody, V domains shown)
VH: EVQLQQSGPVLVKPGPSLKISCKASGFTITDYYMHWVKQTHGKSLAWIGLLYPYNGGTSYNQKFKGKATLTVDTSSSTAYMELNSLTSDDSAVYYCAREGHYDRKGYFDVWGTGTTVTVSS
VL: DIVMTQSHKFMSTSVGDRVSITCKASQDVSTAVAWYQQKPGQSPKLLIYWASTRHTGVPDRFTGSGSGTDYTLIISSVQAEDLALYYCQQHYSIPFTFGSGTKLEIK
B11: MPER18_d21_45.2_v55_15 (antibody, V domains shown)
VH: QVQLQESGPGLVKPSETLSLTCTVSGGSISSYSWSWIRQPPGKGLEWIGYISYSGSTNYNPSLKSRVTISVDTSKSQFSLKLSSVTAADTAVYYCAREPPYYDFWNELSMGVGAFDIWGQGTMVTVSS
VL: DVLMTQIPLSLPVSLGDQASISCRSSQSIVQNNGNTFLEWFLQKPGQSPKLLIYRVSNRFSGVPDRFSGSGSGTDFTLKISRVEAEDLGVYYCFQGSHVPWTFGGGTKLEIK
B12: MPER18_d21_45.2_v55_m15_A06 (antibody, V domains shown)
VH: QVQLQESGPGLVKPSETLSLACTVSGGSFSSSYWSWIRQPPGKGLEWIGYIYYSGSTNYNPSLKSRVTMSVDTSKNQFSLKLSSVTAADTAVYYCAREPPYYDFWSGLSMGVGAFDIWGQGTMVTVSS
VL: DVLMTQSPLSLSVSLGDQASISCRSSQSVVHSNGNTYLEWYLQQPGQSPKLLIYKVSNRFSGVPDRFSGSGSGTDFTLKISRVEAEDLGVYYCFQGSHVPWTFGGGTKLEIK
B13: MPER18_d21_45.2_v55_21 (antibody, V domains shown)
VH: QVQLQESGPGLVKPSETLSLTCTVSGGSISSYYWSWIRQPPGKGLEWIGYISYSGSTNYNPSLKSRVTISVDTSKNQFSLKLSSVTTADTAVYYCAREPPYYDFWNELSMGVGAFDIWGQGTMVTVSS
VL: DVLMTQIPLSLPVSLGDQASISCSSSQSIVQNNGNTFLEWFLQKPGQSPKLLIYRVSNRFSGVPDRFSGSGSGTDFTLKISRVEAEDLGVYYCFQGSHVPWTFGGGTKLEIK
B14: MPER18_d21_45.2_v55_m15_A04 (antibody, V domains shown)
VH: QVQLQESGPGLVKPSETLSLTCTVSGGSISSYYWSWIRQPPGKGLEWIGYIFYSGSTNYNPSLRSRVTISVGTSKNQFSLKLNSVTAADTAVYYCAREPPYYDFWSGLSMGMGAFDIWGQGTMVTVSS
VL: DILMTQSPLSLPVSLGDQASISCRSSQSIVHSNGNSYLEWYLQKPGQSPKLLIYKVSNRFSGVPDRFSGSGSGTDFTLKISRVEAEDLGVYYCFQGSHIPWTFGGGTKLEIK
B15: MPER18_d21_45.1_v55_m3_B08 (antibody, V domains shown)
VH: QVQLQQPGAELVKPGASVKLSCKASGYTFTSYWMHWVKQRPGQGLEWIGMIRPNSGSTNYNERFKSKATLTVDKSSSTAYMQLSSLTSGDSAVYYCAKGGTWTMDYWGQGTSVTVSS
VL: DIVMTQSPSSLSVSAGEKVTMICKSSQSLLNSGNQKNYLAWYQQKPGQPPKLLIYGASTRESGVPDRFTGSGSGTDFTLTISSVQAEDLAVYYCQNDHSYPLTFGAGTKLELK
B16: NHP-10E8_MPER-GT10v55_W3-18 (antibody, V domains shown)
VH: EVQLVESGGGLVQPGGSLRLSCAASGFTFSDYAMDWVRQAPGKGLEWVGYIRSKDYGGTAEYAASVKGRLTISRDDSKNTAYLQMNSLKTEDTAVYYCSRGRGYYHFWSGYYTPYNRFDVWGPGVLVTVSS
VL: DVVMTQSPLSLPVTPGQPASISCRSSQSLVHSDGKTYLNWLQQKPGQPPRRLIYQVSNRDSGVPDRFSGSGAGTDFTLKISRVEAEDVGVYYCVQGTNVPWTFGQGTKVEIK
B17: NHP-10E8_MPER-GT10v55_W3-19 (antibody, V domains shown)
VH: EVQLVESGGGLVQPGGSLRLSCAASGFTFSNYWMSWVRQAPGKGLEWVGFIKNKADGGTAAYAESVKGRFSISRDDSKNTLYLQMNSLKTEDTAVYYCTRDVGRYNFWSGYYSHNRIDVWGPGVLVTVSS
VL: SYELTQPPSVSVSPGQMARITCGGDNLGSKYVHWFQQKPAQAPALVIYDDSDRPSGIPERFSGSKSGNTATLTISGVESGDEADYYCQVWDSGTDHPLFGGGTRLTV
B18: MPER18_d21_45.1_v55_m3_C07 (antibody, V domains shown)
VH: QVQLKQSGPGLVQPSQSLSITCTVSGFSLTNYDIHWVRQSPGKGLEWLGVIWSGGSTDYNAGFISRLSISKDNSKSQVFFKMNSLQGDDTAIYYCARGGGYYEDYVMDYWGQGTSVTVSS
VL: DIQMTQSPASLSASVGETVTITCRASGNIHNYLAWYQQKQGESPHLLVYNAKTLADGVPSRFSGSDSGTQYSLKINSLQPEDFGSYYCQHFWTTPYTFGGGTKLEIK
B19: MPER18_d21_45.1_v55_m3_D12 (antibody, V domains shown)
VH: QVQLQQSGAELMKPGASVILSCKATGYTFTGYWIEWVKLRPGHGLEWIGEILPGNSSTKYNEKFKGKATFTADTSSNTANMQLSSLTTEDSAIYYCARRWNDYDGVAWFGYWGQGTLVSVSA
VL: DIQMTQSPASLSASVGETVTITCRASGNIHNYLAWYQQKQGKSPQLLVYSAKTLADGVPSRFSGSGSGTQYSLKINSLQPEDFGSYYCQHFWSTPYTFGGGTKLEIK
B20: MPER18_d21_45.1_v55_m3_D01 (antibody, V domains shown)
VH: QVQLKQSGPGLVQPSQSLSITCTVSGFSLTNYDVHWVRQSPGKGLAWLGVIWSGGSTDYNATFISRLSISKDNSKTQVFFKMNSLQADDTAIYYCARGGGYYEDYAMDYWGQGTSVTVSS
VL: NIVLTQSPASLAVSLGQRATISCRASESVDTYGNSFMHWYQLKPGQPPKLLIYLASNLESGVPARFSGSGSRTDFTLTIDPVEADDAATYYCQQNNEDPYTFGGGTELEIQ
B21: MPER18_d21_45.1_v55_m3_F02 (antibody, V domains shown)
VH: QVQLKQSGPGLVQPSQSLSITCTVSGFSLTSNGVHWVRQSPGKGLDWLGVIWTGGSTDYNTTFLSRLSISKDNSKSQVFFKMNSLQADDTAIYYCARGGGYYEDYAMDYWGQGTSVTVSS
VL: DIQMTQSPASLSASVGETVTITCRASGNIHNYLAWYQQKQGKSPQLLVYNAKTLADGVPSRFSGSGSGTQYSLKINSLQPEDFGSYCCQHFWSTPYTFGGGTKLEIR

Target: T1, 10E8-GT10.2 epitope scaffold (designed scaffold 10E8-GT10.2 with …, N-linked glycosylation sites added (positions not given))
T1 chain: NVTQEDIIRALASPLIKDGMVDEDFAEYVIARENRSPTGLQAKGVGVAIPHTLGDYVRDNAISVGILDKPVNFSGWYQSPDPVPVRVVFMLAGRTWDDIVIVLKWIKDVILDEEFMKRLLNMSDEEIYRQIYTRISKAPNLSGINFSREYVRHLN

Row | Binder | Kd
1 | B1 | 13000 nM
2 | B2 | 563 nM
3 | B3 | 6.91 nM
4 | B4 | 401 nM
5 | B5 | 0.249 nM
6 | B6 | 0.662 nM
7 | B7 | 2.87 nM
8 | B8 | 13.2 nM
9 | B9 | 4100 nM
10 | B10 | 31.2 nM
11 | B11 | 9.89 nM
12 | B12 | 86.1 nM
13 | B13 | 2.21 nM
14 | B14 | 14.1 nM
15 | B15 | 245 nM
16 | B16 | 1.16 nM
17 | B17 | 345 nM
18 | B18 | 985 nM
19 | B19 | 1250 nM
20 | B20 | 3.38 nM
21 | B21 | 94.6 nM
